Data on two molecules can be found in patent US20150290289, “METHOD OF PROMOTING WOUND HEALING” (Agency for Science, Technology and Research, published 2015).

Data set [1] concerns the target T1, KSRP (KHSRP) (UniProt Q92945 Q92945:2-711).
T1 sequence: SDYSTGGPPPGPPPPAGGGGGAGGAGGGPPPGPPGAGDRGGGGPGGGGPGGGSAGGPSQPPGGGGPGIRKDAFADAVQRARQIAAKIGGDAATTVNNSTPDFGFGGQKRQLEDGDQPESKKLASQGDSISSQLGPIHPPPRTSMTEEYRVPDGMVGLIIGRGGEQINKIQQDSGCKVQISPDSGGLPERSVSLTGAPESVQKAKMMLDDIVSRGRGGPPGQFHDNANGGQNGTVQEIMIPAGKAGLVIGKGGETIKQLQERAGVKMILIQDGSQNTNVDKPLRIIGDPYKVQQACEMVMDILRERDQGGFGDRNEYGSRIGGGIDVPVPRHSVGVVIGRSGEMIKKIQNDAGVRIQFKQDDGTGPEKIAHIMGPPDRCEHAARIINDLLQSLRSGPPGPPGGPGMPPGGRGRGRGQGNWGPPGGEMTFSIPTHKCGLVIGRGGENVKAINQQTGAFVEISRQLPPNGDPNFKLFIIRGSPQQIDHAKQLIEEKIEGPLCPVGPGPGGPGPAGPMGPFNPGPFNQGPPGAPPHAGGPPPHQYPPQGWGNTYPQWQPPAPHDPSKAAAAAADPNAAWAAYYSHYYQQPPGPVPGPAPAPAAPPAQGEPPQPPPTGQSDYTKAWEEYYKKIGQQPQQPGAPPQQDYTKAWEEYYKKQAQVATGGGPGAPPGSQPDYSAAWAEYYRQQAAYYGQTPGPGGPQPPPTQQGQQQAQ
The data set can be described thus: EMSA; 0.5 uM KSRP, 5 mM MgCl2, 50 mM KCl, yeast tRNA, pH 7.4, room temperature. To be noted: tags: recombinant, Origene; label: 32P-UTP; hairpin. Here is the method:
(§1) The pre-miR-198 substrate for gel retardation assay was prepared as described above. Pre-miR-198 transcripts with mutated terminal loop and stem sequences (FIG. 11B) were generated by mutating the parental plasmid (pBSKS) constructs with Quickchange site directed mutagenesis Kit (Stratagene). Recombinant KSRP protein (0.5 μM) was incubated with the wild type or mutant pre-miR-198 transcripts in 20 μl of reaction buffer containing 30 mM Tris HCl, pH 7.4, 5 mM MgCl₂, 50 mM KCl, 0.5 mM DTT, 40 u/ml of RNaseOUT, 250 μg/ml of yeast tRNA and 10% glycerol. After 30 min at room temperature, reaction products were resolved through 6% native polyacrylamide gel electrophoresis. Gel was dried and the protein RNA complex and unbound RNA were visualized by phosphorimaging.
A general note: Mobility shift assays separate free from complexed probe on a gel.

For data set [2], the target named is T1, KSRP (KHSRP). Put plainly: EMSA; binding abrogated; 0.5 uM KSRP. To be noted: tags: recombinant, Origene; label: 32P-UTP; hairpin. As for the experimental part: as §1

B1: pre-miR-198 wild type (ssRNA)
RNA: UCAUUGGUCCAGAGGGGAGAUAGGUUCCUGUGAUUUUUCCUUCUUCUCUAUAGAAUAAAUGA
With B1, the binding result in the data set with KSRP (KHSRP) [1] is “binds”.

B2: pre-miR-198 Mut-1 (ssRNA)
RNA: UCAUUGGUCCAGAGGGGAGAUAGGUUCCUCUCAUUUUUCCUUCUUCUCUAUAGAAUAAAUGA
modifications: [NONE]
As to B2, in the data set with KSRP (KHSRP) [2], the binding result was “no binding”.
